Laboratory results as given in US20240150402.

How the values were obtained:
[1] = target: Final pools of substrates selected with recombinant human matriptase-1
[2] = target: activatable antibodies comprising substrates selected for cleavage by matriptase (5 substrates tested), having the 3954 mask and C225v5 variant of cetuximab
[3] = target: activatable antibodies comprising substrates selected for cleavage by uPA and matriptase (7 substrates tested), having the 3954 mask and C225v5 variant of cetuximab
[4] = target: pool SMP17

Protein | cleavage (flow cytometry of displayed substrate pools) [1] | kcat/KM [2] | kcat/KM [3] | cleavage (flow cytometry of displayed substrate pool) [4]
Human matriptase-1 (protein) GSDEKDCDCGLRSFTRQARVVGGTDADEGEWPWQVSLHALGQGHICGASLISPNWLVSAAHCYIDDRGFRYSDPTQWTAFLGLHDQSQRSAPGVQERRLKRIISHPFFNDFTFDYDIALLELEKPAEYSSMVRPICLPDASHVFPAGKAIWVTGWGHTQYGGTGALILQKGEIRVINQTTCENLLPQQITPRMMCVGFLSGGVDSCQGDSGGPLSSVEADGRIFQAGVVSWGDGCAQRNKPGVYTRLPLFRDWIKENTGV | The pools were cleaved by matriptase-1 | kcat/KM values ranging from about 6,500 to 100,000 M^-1s^-1 for matriptase (5 substrates tested) | from about 3,000 to 100,000 M^-1s^-1 for matriptase (7 substrates tested) | 
Human plasmin (protein) KVYLSECKTGNGKNYRGTMSKTKNGITCQKWSSTSPHRPRFSPATHPSEGLEENYCRNPDNDPQGPWCYTTDPEKRYDYCDILECEEECMHCSGENYDGKISKTMSGLECQAWDSQSPHAHGYIPSKFPNKNLKKNYCRNPDRELRPWCFTTDPNKRWELCDIPRCTTPPPSSGPTYQCLKGTGENYRGNVAVTVSGHTCQHWSAQTPHTHNRTPENFPCKNLDENYCRNPDGKRAPWCHTTNSQVRWEYCKIPSCDSSPVSTEQLAPTAPPELTPVVQDCYHGDGQSYRGTSSTTTTGKKCQSWSSMTPHRHQKTPENYPNAGLTMNYCRNPDADKGPWCFTTDPSVRWEYCNLKKCSGTEASVVAPPPVVLLPDVETPSEEDCMFGNGKGYRGKRATTVTGTPCQDWAAQEPHRHSIFTPETNPRAGLEKNYCRNPDGDVGGPWCYTTNPRKLYDYCDVPQCAAPSFDCGKPQVEPKKCPGRVVGGCVAHPHSWPWQVSLRTRFGMHFCGGTLISPEWVLTAAHCLEKSPRPSSYKVILGAHQEVNLEPHVQEIEVSRLFLEPTRKDIALLKLSSPAVITDKVIPACLPSPNYVVADRTECFITGWGETQGTFGAGLLKEAQLPVIENKVCNRYEFLNGRVQSTELCAGHLAGGTDSCQGDSGGPLVCFEKDKYILQGVTSWGLGCARPNKPGVYVRVSRFVTWIEGVMRNN | but not by tPA or plasmin |  |  | 
Human tPA (protein) SYQVICRDEKTQMIYQQHQSWLRPVLRSNRVEYCWCNSGRAQCHSVPVKSCSEPRCFNGGTCQQALYFSDFVCQCPEGFAGKCCEIDTRATCYEDQGISYRGTWSTAESGAECTNWNSSALAQKPYSGRRPDAIRLGLGNHNYCRNPDRDSKPWCYVFKAGKYSSEFCSTPACSEGNSDCYFGNGSAYRGTHSLTESGASCLPWNSMILIGKVYTAQNPSAQALGLGKHNYCRNPDGDAKPWCHVLKNRRLTWEYCDVPSCSTCGLRQYSQPQFRIKGGLFADIASHPWQAAIFAKHRRSPGERFLCGGILISSCWILSAAHCFQERFPPHHLTVILGRTYRVVPGEEEQKFEVEKYIVHKEFDDDTYDNDIALLQLKSDSSRCAQESSVVRTVCLPPADLQLPDWTECELSGYGKHEALSPFYSERLKEAHVRLYPSSRCTSQHLLNRTVTDNMLCAGDTRSGGPQANLHDACQGDSGGPLVCLNDGRMTLVGIISWGLGCGQKDVPGVYTKVTNYLDWIRDNMRP | but not by tPA or plasmin |  |  | resistance to tPA
